What is called Km is the concentration of substrate that gives half-maximal velocity. As a reminder, the kcat is the maximal rate divided by the concentration of active sites. For orientation: kcat/Km means the second-order rate constant that governs catalysis at low substrate concentration.

Data set [1] deals with T1, Pea leaf FNR (Lathyrus oleraceus, UniProt P10933).
T1 construct: gene PETH; preparation of the assayed enzyme not described; monomeric FAD flavoprotein
T1 sequence (P10933 53-360): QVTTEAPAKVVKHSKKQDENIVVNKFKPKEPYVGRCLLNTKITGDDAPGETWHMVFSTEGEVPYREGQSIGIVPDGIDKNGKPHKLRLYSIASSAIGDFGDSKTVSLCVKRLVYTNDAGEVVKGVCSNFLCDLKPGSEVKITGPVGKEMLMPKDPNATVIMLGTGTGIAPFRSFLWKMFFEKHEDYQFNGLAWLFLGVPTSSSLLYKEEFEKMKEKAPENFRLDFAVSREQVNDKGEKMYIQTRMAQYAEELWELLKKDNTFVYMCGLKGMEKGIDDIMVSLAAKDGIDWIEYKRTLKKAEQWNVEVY
The data set can be described thus: difference absorption spectroscopy. Type of data set: binding. As to conditions: read-out: K d ^NADP+ /. From the text: difference absorption spectroscopy on Pea leaf FNR

Data set [2] concerns the target T2, E. coli FNR (Escherichia coli, UniProt P28861).
T2 construct: gene fpr; ferredoxin-NADP(H) reductase, not the FNR transcription regulator
T2 sequence (P28861 2-248): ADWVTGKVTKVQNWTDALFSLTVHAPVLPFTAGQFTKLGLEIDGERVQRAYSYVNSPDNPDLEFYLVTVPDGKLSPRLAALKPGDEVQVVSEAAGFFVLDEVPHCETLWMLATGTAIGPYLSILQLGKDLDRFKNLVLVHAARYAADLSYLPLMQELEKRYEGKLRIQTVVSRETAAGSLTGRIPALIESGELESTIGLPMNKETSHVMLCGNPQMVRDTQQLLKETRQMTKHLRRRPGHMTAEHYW
Nature of the data set: difference absorption spectroscopy. Type of data set: binding. As to conditions: read-out: K d ^NADP+ /. The source says: difference absorption spectroscopy on E. coli FNR

The target of data set [3] is T3, LepFNR (Leptospira interrogans, UniProt Q8EY89).
T3 construct: gene LA_4327; recombinant in E. coli BL21(DE3)pLysS, thioredoxin fusion (pET32JO-LepFNR) cut off by thrombin; monomeric FAD flavoprotein
T3 sequence (Q8EY89 entry or part of it): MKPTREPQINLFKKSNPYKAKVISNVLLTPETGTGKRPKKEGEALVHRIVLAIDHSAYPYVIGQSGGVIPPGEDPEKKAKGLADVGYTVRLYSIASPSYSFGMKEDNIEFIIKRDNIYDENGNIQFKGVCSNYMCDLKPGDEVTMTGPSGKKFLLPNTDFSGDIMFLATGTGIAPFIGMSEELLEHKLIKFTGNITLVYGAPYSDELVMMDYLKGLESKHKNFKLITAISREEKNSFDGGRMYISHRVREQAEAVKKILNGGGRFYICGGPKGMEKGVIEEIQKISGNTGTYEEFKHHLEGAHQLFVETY
Nature of the data set: difference absorption spectroscopy titration. Type of data set: binding. The source says:
difference absorption spectroscopy titration on LepFNR

Data set [4] deals with T3, LepFNR. Nature of the data set: UV-visible spectrum; FAD fluorescence (release with urea). Format: binding. The note with it: noncovalently bound prosthetic group, 50 mM Tris-HCl pH 8.0, 25 °C.
For data set [5], the target named is T2, E. coli FNR. Nature of the data set: UV-visible spectrum. Format: binding. As to conditions: noncovalently bound prosthetic group.
For data set [6], the target named is Leptospira interrogans ferredoxin-NADP(H) reductase (L. interrogans).
In data set [7] the test system is NC(=O)C1=CN([C@@H]2O[C@H](COP(=O)(O)OP(=O)(O)OC[C@H]3O[C@@H](n4cnc5c(N)ncnc54)[C@H](OP(=O)(O)O)[C@@H]3O)[C@@H](O)[C@H]2O)C=CC1. The data set can be described thus: purified protein. As to conditions: 1 mM potassium ferricyanide, NADPH regenerating system, 50 mM Tris-HCl pH 8.0, 30 °C.
For data set [8], the target named is Leptospira interrogans ferredoxin-NADP(H) reductase (L. interrogans). The source holds these as a separate data set.
Substrate in data set [9]: NC(=O)C1=CN([C@@H]2O[C@H](COP(=O)(O)OP(=O)(O)OC[C@H]3O[C@@H](n4cnc5c(N)ncnc54)[C@H](OP(=O)(O)O)[C@@H]3O)[C@@H](O)[C@H]2O)C=CC1
Nature of the data set: purified protein. Format: biochemical, Lathyrus oleraceus. The note with it: 1 mM potassium ferricyanide, NADPH regenerating system, 50 mM Tris-HCl pH 8.0, 30 °C.

Substrate in data set [10]: NC(=O)C1=CN([C@@H]2O[C@H](COP(=O)(O)OP(=O)(O)OC[C@H]3O[C@@H](n4cnc5c(N)ncnc54)[C@H](OP(=O)(O)O)[C@@H]3O)[C@@H](O)[C@H]2O)C=CC1
Nature of the data set: purified protein. Type of data set: biochemical, Escherichia coli. The note with it: 1 mM potassium ferricyanide, NADPH regenerating system, 50 mM Tris-HCl pH 8.0, 30 °C.

As to `NC(=O)c1ccc[n+]([C@@H]2O[C@H](COP(=O)(O)OP(=O)(O)OC[C@H]3O[C@@H](n4cnc5c(N)ncnc54)[C@H](OP(=O)(O)O)[C@@H]3O)[C@@H](O)[C@H]2O)c1` [NADP^+], the values for the Kd in data set [1], in data set [2] and in data set [3] were 11.3 ± 2.1 µM, 7.6 ± 2.2 µM and 13.2 ± 3.1 µM, respectively.
Turning to `Cc1cc2nc3c(=O)[nH]c(=O)nc-3n(C[C@H](O)[C@H](O)[C@H](O)COP(=O)(O)OP(=O)(O)OC[C@H]3O[C@@H](n4cnc5c(N)ncnc54)[C@H](O)[C@@H]3O)c2cc1C` [FAD], the “UV-visible spectrum; FAD fluorescence (release with urea)” value in data set [4] is reported as “the prosthetic group remains bound to the enzyme”. Also, in [5], the UV-visible spectrum entry is “spectra of the pea leaf FNR, E. coli FNR and LepFNR, all essentially in oxidized states”.
In the case of “Leptospira interrogans LB107 [4Fe-4S] ferredoxin (natural protein)”, in data set [6], the NADPH-cytochrome c reductase activity of LepFNR with LB107 ferredoxin under anaerobic conditions at different pH values; maximal specific activity at pH 6.5, lower at higher pH is 6.13 µmol/min/mg.
Take “LepFNR (Leptospira interrogans serovar Lai str. 56601)”: in data set [7], the Km was determined as 14.5 ± 1.7 µM, the kcat amounted to 258 ± 13.7 s⁻¹ and the kcat/Km was 1.78e+07 M⁻¹ s⁻¹.
Turning to “Pisum sativum leaf ferredoxin (from UniProt P09911 53-149) (natural protein)”, in [8], the NADPH-cytochrome c reductase activity of LepFNR with P. sativum leaf ferredoxin; the reaction was linear with pea leaf ferredoxin up to 70 µM, no kinetic parameters determined stood at 2.5 s⁻¹.

B1: Pea leaf FNR (Lathyrus oleraceus) (protein)
chain: QVTTEAPAKVVKHSKKQDENIVVNKFKPKEPYVGRCLLNTKITGDDAPGETWHMVFSTEGEVPYREGQSIGIVPDGIDKNGKPHKLRLYSIASSAIGDFGDSKTVSLCVKRLVYTNDAGEVVKGVCSNFLCDLKPGSEVKITGPVGKEMLMPKDPNATVIMLGTGTGIAPFRSFLWKMFFEKHEDYQFNGLAWLFLGVPTSSSLLYKEEFEKMKEKAPENFRLDFAVSREQVNDKGEKMYIQTRMAQYAEELWELLKKDNTFVYMCGLKGMEKGIDDIMVSLAAKDGIDWIEYKRTLKKAEQWNVEVY
notes: preparation of the assayed enzyme not described; monomeric FAD flavoprotein
For B1, in data set [9], the Km is 15.0 ± 1.6 µM, the kcat turned out to be 325 ± 16.5 s⁻¹ and the kcat/Km was 2.17e+07 M⁻¹ s⁻¹.

B2: E. coli FNR (Escherichia coli K-12) (protein)
chain: ADWVTGKVTKVQNWTDALFSLTVHAPVLPFTAGQFTKLGLEIDGERVQRAYSYVNSPDNPDLEFYLVTVPDGKLSPRLAALKPGDEVQVVSEAAGFFVLDEVPHCETLWMLATGTAIGPYLSILQLGKDLDRFKNLVLVHAARYAADLSYLPLMQELEKRYEGKLRIQTVVSRETAAGSLTGRIPALIESGELESTIGLPMNKETSHVMLCGNPQMVRDTQQLLKETRQMTKHLRRRPGHMTAEHYW
notes: ferredoxin-NADP(H) reductase, not the FNR transcription regulator
B2: in [10], the Km was determined as 8.3 ± 0.5 µM, the kcat was determined as 38.2 ± 2.3 s⁻¹ and the kcat/Km worked out at 5e+06 M⁻¹ s⁻¹.

The record behind these values is PMC3200346, “A Highly Stable Plastidic-Type Ferredoxin-NADP(H) Reductase in the Pathogenic Bacterium Leptospira interrogans” (PLoS ONE, 2011).
